Data: article PMC10397247
Each block holds one binder with its values, some of them ahead of it.

Assays:
4H324-AA = biological target: T1, 4H324-AA; test: two-hybrid library CCmax;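 also: natural log of median RNA to DNA barcode read ratio; higher means stronger binding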
T1 chain: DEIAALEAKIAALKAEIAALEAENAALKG

4H341-AA = biological target: T2, 4H341-AA; test: two-hybrid library CCmax; conditions: mean of both orientations;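 also: natural log of median RNA to DNA barcode read ratio; higher means stronger binding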
T2 chain: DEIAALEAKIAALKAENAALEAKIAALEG

4H3449-AA = biological target: T3, 4H3449-AA; test: two-hybrid library CCmax; conditions: mean of both orientations;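 also: natural log of median RNA to DNA barcode read ratio; higher means stronger binding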
T3 chain: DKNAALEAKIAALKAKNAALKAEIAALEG

4H3619-AA = biological target: T4, 4H3619-AA; test: two-hybrid library CCmax; conditions: mean of both orientations;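 also: natural log of median RNA to DNA barcode read ratio; higher means stronger binding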
T4 chain: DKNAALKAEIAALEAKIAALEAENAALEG

4H3629-AA = biological target: T5, 4H3629-AA; test: two-hybrid library CCmax; conditions: mean of both orientations;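 also: natural log of median RNA to DNA barcode read ratio; higher means stronger binding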
T5 chain: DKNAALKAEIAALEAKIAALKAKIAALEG

4H3777-AA = biological target: T6, 4H3777-AA; test: two-hybrid library CCmax; conditions: mean of both orientations;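 also: natural log of median RNA to DNA barcode read ratio; higher means stronger binding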
T6 chain: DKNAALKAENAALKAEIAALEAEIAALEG

4H380-AA = biological target: T7, 4H380-AA; test: two-hybrid library CCmax; conditions: mean of both orientations
T7 chain: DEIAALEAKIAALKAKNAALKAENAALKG

4H3915-AA = biological target: T8, 4H3915-AA; test: two-hybrid library CCmax; conditions: mean of both orientations
T8 chain: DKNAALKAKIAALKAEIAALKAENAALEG

4H3974-AA = biological target: T9, 4H3974-AA; test: two-hybrid library CCmax; conditions: mean of both orientations
T9 chain: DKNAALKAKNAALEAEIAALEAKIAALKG

4H432-AA = biological target: T10, 4H432-AA; test: two-hybrid library CCmax; conditions: mean of both orientations
T10 chain: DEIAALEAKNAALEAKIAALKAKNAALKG

4H446-AA = biological target: T11, 4H446-AA; test: two-hybrid library CCmax; conditions: mean of both orientations
T11 chain: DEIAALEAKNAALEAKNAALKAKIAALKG

4H63-AA = biological target: T12, 4H63-AA; test: two-hybrid library CCmax; conditions: mean of both orientations
T12 chain: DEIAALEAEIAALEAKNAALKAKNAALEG

4H754-bH = biological target: T13, 4H754-bH; test: two-hybrid library CCNG1
T13 chain: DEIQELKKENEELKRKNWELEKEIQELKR

4H780-bH = biological target: T14, 4H780-bH; test: two-hybrid library CCNG1
T14 chain: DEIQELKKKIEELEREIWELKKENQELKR

4H797-bH = biological target: T15, 4H797-bH; test: two-hybrid library CCNG1
T15 chain: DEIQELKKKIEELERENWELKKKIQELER

4H855-bH = biological target: T16, 4H855-bH; test: two-hybrid library CCNG1
T16 chain: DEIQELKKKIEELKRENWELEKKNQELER

4H883-bH = biological target: T17, 4H883-bH; test: two-hybrid library CCNG1
T17 chain: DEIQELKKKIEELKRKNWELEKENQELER

4H908-bH = biological target: T18, 4H908-bH; test: two-hybrid library CCNG1
T18 chain: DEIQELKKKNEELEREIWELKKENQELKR

4H918-bH = biological target: T19, 4H918-bH; test: two-hybrid library CCNG1
T19 chain: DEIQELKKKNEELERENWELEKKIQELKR

4H953-bH = biological target: T20, 4H953-bH; test: two-hybrid library CCNG1
T20 chain: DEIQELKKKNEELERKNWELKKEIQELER

4H967-bH = biological target: T21, 4H967-bH; test: two-hybrid library CCNG1
T21 chain: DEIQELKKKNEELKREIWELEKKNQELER

4H968-bH = biological target: T22, 4H968-bH; test: two-hybrid library CCNG1
T22 chain: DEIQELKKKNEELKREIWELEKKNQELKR

4H3162-AA = biological target: T23, 4H3162-AA; test: two-hybrid library CCmax
T23 chain: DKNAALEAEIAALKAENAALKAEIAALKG

4H32-AA = biological target: T24, 4H32-AA; test: two-hybrid library CCmax; conditions: mean of both orientations
T24 chain: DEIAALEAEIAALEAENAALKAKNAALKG

4H3378-AA = biological target: T25, 4H3378-AA; test: two-hybrid library CCmax; conditions: mean of both orientations
T25 chain: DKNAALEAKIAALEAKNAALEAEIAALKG

4H340-AA = biological target: T26, 4H340-AA; test: two-hybrid library CCmax; conditions: mean of both orientations
T26 chain: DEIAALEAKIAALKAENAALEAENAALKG

4H3413-AA = biological target: T27, 4H3413-AA; test: two-hybrid library CCmax; conditions: mean of both orientations
T27 chain: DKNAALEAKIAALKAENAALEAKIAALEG

4H3588-AA = biological target: T28, 4H3588-AA; test: two-hybrid library CCmax; conditions: mean of both orientations
T28 chain: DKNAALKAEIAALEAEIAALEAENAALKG

4H3606-AA = biological target: T29, 4H3606-AA; test: two-hybrid library CCmax; conditions: mean of both orientations
T29 chain: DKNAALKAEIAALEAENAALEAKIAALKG

4H3631-AA = biological target: T30, 4H3631-AA; test: two-hybrid library CCmax; conditions: mean of both orientations
T30 chain: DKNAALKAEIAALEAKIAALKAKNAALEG

4H3697-AA = biological target: T31, 4H3697-AA; test: two-hybrid library CCmax; conditions: mean of both orientations
T31 chain: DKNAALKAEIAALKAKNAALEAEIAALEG

4H3718-AA = biological target: T32, 4H3718-AA; test: two-hybrid library CCmax; conditions: mean of both orientations
T32 chain: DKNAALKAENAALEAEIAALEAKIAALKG

4H384-AA = biological target: T33, 4H384-AA; test: two-hybrid library CCmax; conditions: mean of both orientations
T33 chain: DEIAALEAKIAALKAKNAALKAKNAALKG

4H3865-AA = biological target: T34, 4H3865-AA; test: two-hybrid library CCmax; conditions: mean of both orientations
T34 chain: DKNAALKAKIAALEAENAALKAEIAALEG

4H697-AA = biological target: T35, 4H697-AA; test: two-hybrid library CCmax; conditions: mean of both orientations
T35 chain: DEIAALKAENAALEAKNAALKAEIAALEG

4H982-AA = biological target: T36, 4H982-AA; test: two-hybrid library CCmax; conditions: mean of both orientations
T36 chain: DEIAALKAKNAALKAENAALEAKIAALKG

interaction score (4H324-AA): 1.11
interaction score (4H341-AA): -0.39
interaction score (4H3449-AA): -1.69
interaction score (4H3619-AA): 1.47
interaction score (4H3629-AA): 1.36
interaction score (4H3777-AA): -1.37
interaction score (4H380-AA): 0.833
interaction score (4H3915-AA): 0.128
interaction score (4H3974-AA): 1.2
interaction score (4H432-AA): -0.834
interaction score (4H446-AA): -1.06
interaction score (4H63-AA): -0.0237
Binder: DEIAALEAKIAALKAEIAALEAENAALKG [4H324-AA]

interaction score (4H754-bH): 1.36
interaction score (4H780-bH): -0.00466
interaction score (4H797-bH): -0.0415
interaction score (4H855-bH): -0.362
interaction score (4H883-bH): -0.29
interaction score (4H908-bH): 0.329
interaction score (4H918-bH): 0.604
interaction score (4H953-bH): 0.539
interaction score (4H967-bH): -0.713
interaction score (4H968-bH): -0.182
Binder: DEIQELKKENEELKRKNWELEKEIQELKR [4H754-bH]

interaction score (4H3162-AA): 0.942
interaction score (4H32-AA): -1.53
interaction score (4H3378-AA): -1.59
interaction score (4H340-AA): -1.4
interaction score (4H3413-AA): -1.04
interaction score (4H3588-AA): -1.53
interaction score (4H3606-AA): -0.0579
interaction score (4H3631-AA): -1.62
interaction score (4H3697-AA): -1.2
interaction score (4H3718-AA): -1.43
interaction score (4H384-AA): -1.58
interaction score (4H3865-AA): -0.607
interaction score (4H697-AA): -1.39
interaction score (4H982-AA): -1.88
Binder: DKNAALEAEIAALKAENAALKAEIAALKG [4H3162-AA]
